Experiment [1] addresses endogenous cell surface PD-1 on activated CD4 T cells (human, UniProt Q15116 25-288). The experiment can be described thus: cell-based or functional assay.
In experiment [2] the target is T1, PD-1 Fc fusion protein (human, UniProt Q15116 25-167, limits assumed).
T1 construct: construct limits, linker and Fc not described; the bead protein is printed only as 'PD-1 Fc fusion protein'; also called human PD-1 Fc fusion protein; PD-1 Fc fusion protein coated beads
The experiment can be described thus: FIG. 5A; Luminex, PD-1 Fc beads, antibody titrated, competitor: fixed biotinylated PD-L1.

Chain of endogenous cell surface PD-1 on activated CD4 T cells (Q15116 25-288): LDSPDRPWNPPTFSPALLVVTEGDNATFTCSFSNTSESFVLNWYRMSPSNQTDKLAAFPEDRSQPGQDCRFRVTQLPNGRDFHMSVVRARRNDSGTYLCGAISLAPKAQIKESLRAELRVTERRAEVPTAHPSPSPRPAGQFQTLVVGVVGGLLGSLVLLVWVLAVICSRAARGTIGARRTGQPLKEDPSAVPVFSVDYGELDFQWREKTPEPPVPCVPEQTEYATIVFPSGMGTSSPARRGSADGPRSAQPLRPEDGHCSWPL
T1 sequence (Q15116 25-167 limits assumed): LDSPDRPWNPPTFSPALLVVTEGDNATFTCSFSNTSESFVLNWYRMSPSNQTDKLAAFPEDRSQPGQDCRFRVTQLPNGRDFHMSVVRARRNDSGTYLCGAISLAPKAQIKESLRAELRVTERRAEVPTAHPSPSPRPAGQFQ

B1: 135C12 (antibody, V domains shown)
VH: EVQLHQSGPELLKPGASVRMSCKASGYTFTNFYIHWVKQSHGKSIEWIGSIYPNYGDTAYNQKFKDKATLTVDKSSSTAYMALRSLTSEDSAVYYCARGYSYAMDYWGQGTSVTVSS
VL: NIVMTQSPKSMSMSVGERVTLTCKASENVVTYVSWYQQKPEQSPKLLIYGASNRYTGVPDRFTGSGSATDFTLTISSVQAEDLADYHCGQGYSYPYTFGGGTKLEIK
Take B1: in experiment [1], the “EFRA % relative to peptide stimulation alone” value was 195%.

B2: 137F2 (antibody, V domains shown)
VH: QVQLQQPGAELVRPGTSVKMSCKAAGYTFTNYWIGWIKQRPGHGLEWIGDIYPGGGYTNYNEKFKGKATLTADTSSSTAYMQVSSLTSEDTGIYYCARGYDFVLDRWGQGTSVTVSS
VL: DIVMSQSPSSLAVSTGEKVTMTCKSSQSLFNSETQKNYLAWYQQKPGQPPKLLIFWASTRESGVPDRFLGSGSGTDFTLTISSVQAEDLAVYYCKQSYTLRTFGGGTKLEIK
A word on the IC50: it is the concentration that gives 50% inhibition. The low end stands for higher potency, the high end for lower potency. Consider B2, for which the “EFRA % relative to peptide stimulation alone” value in experiment [1] amounted to 250%. Besides, the IC50 in experiment [2] is approximately 0.2 nM.

These data come from patent US20190106493A1 (MABQUEST, published 2019).
